Assay results as given in paper PMC9454698.

Target: stanniocalcin 2 (STC2), recombinant (mouse) (UniProt O88452)
Assay: quartz crystal microbalance (QCM); STC2 (50 µg/mL) immobilised by amine coupling on LNB chip, Attana Cell 200; HRG injected at 50, 100 and 200 nM; PBS running buffer, 10 µL/min, 22 °C, 500 s dissociation; 1:1 global interaction model

Chain of UniProt O88452 (O88452 25-296): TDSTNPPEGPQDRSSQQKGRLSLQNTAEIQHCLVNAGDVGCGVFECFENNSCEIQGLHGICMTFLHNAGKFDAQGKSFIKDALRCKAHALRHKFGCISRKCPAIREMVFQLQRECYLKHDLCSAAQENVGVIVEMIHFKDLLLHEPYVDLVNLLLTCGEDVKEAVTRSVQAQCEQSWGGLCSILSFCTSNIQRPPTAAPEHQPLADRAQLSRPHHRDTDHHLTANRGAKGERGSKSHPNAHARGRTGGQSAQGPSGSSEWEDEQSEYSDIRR

Kd: 55 nM
koff: 0.0014 s⁻¹
kon: 26000 M⁻¹ s⁻¹
Substance: histidine-rich glycoprotein (HRG), recombinant, active (from UniProt Q9ESB3 19-525) (natural protein)
